Results reported in US20140341881A1 (DERMADIS, published 2014).
Where a chain is given by its changes, count along the chain named. Blank lines part the entries; values can stand above or below the binder they belong to.

What was measured:
[1] = biological target: T1, human kallikrein 14 (hK14) (human, UniProt Q9P0G3 25-251, limits assumed); assay: residual hK14 activity against [I0]/[E0]
T1 construct: range counted on GenBank AAK48524 (printed), which may differ from the UniProt numbering; also called recombinant hK14
T1 sequence (looked up): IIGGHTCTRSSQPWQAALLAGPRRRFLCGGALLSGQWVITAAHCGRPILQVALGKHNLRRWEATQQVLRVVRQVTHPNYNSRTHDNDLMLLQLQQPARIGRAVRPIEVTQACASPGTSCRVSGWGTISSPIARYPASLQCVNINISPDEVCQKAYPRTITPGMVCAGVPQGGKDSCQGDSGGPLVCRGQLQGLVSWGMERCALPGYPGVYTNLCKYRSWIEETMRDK
Experimental: SI values of rAAT, rACT, and their variants were determined with hK14 incubating the protease with varying concentrations of inhibitor. After an incubation of 4 hours at 37° C. in reaction buffer (50 mM Tris, pH 7.5, 150 mM NaCl, 0.05% Triton X-100, 0.01% BSA), the residual activity was detected by the addition of fluorescent substrate (Boc-Val-Pro-Arg-AMC). Fluorescence was measured with excitation at 340 nm (±15) and emission at 485 nm (±10) in black 96 well plates using a microplate fluorescence reader FLₓ800 (Bio-Tek Instruments, Inc.). The SI value corresponds to the abscissa intercept of the linear regression analysis of fractional velocity (velocity of inhibited enzyme reaction (vi)/velocity of uninhibited enzyme reaction (v₀)) vs. the molar ratio of the inhibitor to enzyme ([I₀]/[E₀]).

[2] = biological target: T1, human kallikrein 14 (hK14); assay: cell-based or functional assay
[3] = biological target: urokinase plasminogen activator (uPA) (UniProt P00749 21-431, limits assumed); assay: cell-based or functional assay
[4] = biological target: T2, human neutrophil elastase (HNE) (human, UniProt P08246 30-247, limits assumed); assay: cell-based or functional assay
T2 sequence (looked up): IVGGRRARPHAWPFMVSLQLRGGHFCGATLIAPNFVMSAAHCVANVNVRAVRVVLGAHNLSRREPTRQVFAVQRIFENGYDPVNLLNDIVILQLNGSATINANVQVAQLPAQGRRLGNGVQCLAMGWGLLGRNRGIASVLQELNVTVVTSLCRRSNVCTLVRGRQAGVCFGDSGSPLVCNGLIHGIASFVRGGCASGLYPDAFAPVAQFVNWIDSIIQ

thrombin = assay: cell-based or functional assay
[5] = biological target: human plasma kallikrein (PK) (human, UniProt P03952 20-638); assay: cell-based or functional assay
human plasma kallikrein (PK), sequence (P03952 20-638 limits assumed): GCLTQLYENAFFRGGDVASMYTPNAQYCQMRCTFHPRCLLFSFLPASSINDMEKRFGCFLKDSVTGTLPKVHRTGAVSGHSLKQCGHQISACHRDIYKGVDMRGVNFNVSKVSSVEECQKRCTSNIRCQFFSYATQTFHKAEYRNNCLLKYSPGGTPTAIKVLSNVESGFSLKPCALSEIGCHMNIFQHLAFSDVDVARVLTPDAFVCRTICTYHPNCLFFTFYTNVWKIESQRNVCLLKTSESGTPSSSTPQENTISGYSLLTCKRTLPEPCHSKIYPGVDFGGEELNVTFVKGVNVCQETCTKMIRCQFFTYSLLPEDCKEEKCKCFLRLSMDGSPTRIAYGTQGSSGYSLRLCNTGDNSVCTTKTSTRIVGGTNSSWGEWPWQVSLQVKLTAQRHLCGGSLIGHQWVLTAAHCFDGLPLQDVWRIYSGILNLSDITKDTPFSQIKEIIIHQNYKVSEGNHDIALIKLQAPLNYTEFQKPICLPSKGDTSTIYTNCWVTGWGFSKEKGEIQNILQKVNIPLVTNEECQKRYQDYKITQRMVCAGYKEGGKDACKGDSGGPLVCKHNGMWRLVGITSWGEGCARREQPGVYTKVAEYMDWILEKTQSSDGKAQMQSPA

[6] = biological target: human chymotrypsin (Chtr) (human, UniProt P17538 19-263); assay: cell-based or functional assay
human chymotrypsin (Chtr), sequence (P17538 19-263): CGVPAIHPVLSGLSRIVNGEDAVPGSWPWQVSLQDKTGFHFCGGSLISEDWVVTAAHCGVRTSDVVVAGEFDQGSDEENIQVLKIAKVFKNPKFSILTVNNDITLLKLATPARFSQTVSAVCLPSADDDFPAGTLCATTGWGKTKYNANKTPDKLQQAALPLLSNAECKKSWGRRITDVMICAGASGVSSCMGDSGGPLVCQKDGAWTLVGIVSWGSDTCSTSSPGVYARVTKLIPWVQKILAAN

[7] = biological target: T1, human kallikrein 14 (hK14); assay: progress curve; * [I0]/[E0] < 5 * SI
Experimental: The association rate constants for interactions of hK14, with different inhibitors were determined under pseudo-first order conditions using the progress curve method (Morrison and Walsh, 1988). Under these conditions, a fixed amount of enzyme (2 nM) was mixed with different concentrations of inhibitor (0-80 nM) and an excess of substrate (20 μM). Reactions were performed in reaction buffer (50 mM Tris pH 7.5, 150 mM NaCl, 0.05% Triton X-100, 0.01% BSA) at 37° C. for 45 min and the rate of product formation was measured using a FLₓ800 fluorescence 96-well microplate reader (Biotek, USA) Inhibition is considered to be irreversible over the course of reaction and the progression of enzyme activity is expressed as product formation (P), beginning at a rate (vz) and is inhibited over time (t) at a first-order rate (kobs), where the rate constant is only dependent on the inhibitor concentration.

human kallikrein 2 (hK2) = human kallikrein 2 (hK2) (human, UniProt P20151 25-261); assay: cell-based or functional assay
human kallikrein 8 (hK8) = biological target: T3, human kallikrein 8 (hK8) (human, UniProt O60259 33-260); assay: cell-based or functional assay
T3 sequence (looked up): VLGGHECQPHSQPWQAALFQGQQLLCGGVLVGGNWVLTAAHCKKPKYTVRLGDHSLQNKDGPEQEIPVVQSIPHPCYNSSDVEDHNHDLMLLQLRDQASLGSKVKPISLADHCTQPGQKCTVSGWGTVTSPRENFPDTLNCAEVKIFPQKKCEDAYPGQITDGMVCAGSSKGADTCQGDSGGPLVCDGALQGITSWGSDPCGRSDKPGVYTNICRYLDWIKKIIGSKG

human kallikrein 6 (hK6) = human kallikrein 6 (hK6) (human, UniProt Q92876 22-244); assay: cell-based or functional assay
human kallikrein 4 (hK4) = human kallikrein 4 (hK4) (human, UniProt Q9Y5K2 31-254, limits assumed); assay: cell-based or functional assay
human kallikrein 4 (hK4), sequence (Q9Y5K2 31-254 limits assumed): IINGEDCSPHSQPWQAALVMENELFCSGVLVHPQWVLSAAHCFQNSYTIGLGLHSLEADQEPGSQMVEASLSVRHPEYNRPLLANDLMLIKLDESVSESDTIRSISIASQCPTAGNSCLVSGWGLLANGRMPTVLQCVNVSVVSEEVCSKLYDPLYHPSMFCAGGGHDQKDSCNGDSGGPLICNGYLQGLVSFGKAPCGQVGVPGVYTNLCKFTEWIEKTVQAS

human kallikrein 5 (hK5) = biological target: T4, human kallikrein 5 (hK5) (human, UniProt Q9Y337 67-293, limits assumed); assay: cell-based or functional assay
T4 sequence (looked up): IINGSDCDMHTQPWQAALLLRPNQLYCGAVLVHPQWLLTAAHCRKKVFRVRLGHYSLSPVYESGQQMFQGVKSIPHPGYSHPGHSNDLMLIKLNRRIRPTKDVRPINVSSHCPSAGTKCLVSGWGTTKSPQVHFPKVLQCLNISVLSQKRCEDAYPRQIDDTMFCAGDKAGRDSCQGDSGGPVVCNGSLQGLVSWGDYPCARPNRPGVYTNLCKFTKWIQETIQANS

- SI (stoichiometry of inhibition) [1]: 2.8
- % Inhibition [2]: 100%
- % Inhibition [3]: 0%
- % Inhibition [4]: 0%
- % Inhibition (thrombin): 100%
- % Inhibition [5]: 8%
- % Inhibition [6]: 18%
B1: AATC11 (other, human)
chain: HHHHHHEDPQGDAAQKTDTSHHDQDHPTFNKITPNLAEFAFSLYRQLAHQSNSTNIFFSPVSIATAFAMLSLGTKADTHDEILEGLNFNLTEIPEAQIHEGFQELLRTLNQPDSQLQLTTGNGLFLSEGLKLVDKFLEDVKKLYHSEAFTVNFGDTEEAKKQINDYVEKGTQGKIVDLVKELDRDTVFALVNYIFFKGKWERPFEVKDTEEEDFHVDQVTTVKVPMMKRLGMFNIQHCKKLSSWVLLMKYLGNATAIFFLPDEGKLQHLENELTHDIITKFLENEDRRSASLHLPKLSITGTYDLKSVLGQLGITKVFSNGADLSGVTEEAPLKLSKAVHKAVLTIDEKGTEAAGAMFLEAIPRQTNPEVKFNKPFVFLMIEQNTKSPLFMGKVVNPTQK
notes: mature

- SI (stoichiometry of inhibition) [1]: 2.3
- % Inhibition [2]: 100%
- % Inhibition [3]: 0%
- % Inhibition [4]: 0%
- % Inhibition (thrombin): 0%
- % Inhibition [5]: 100%
- % Inhibition [6]: 17%
B2: AATG1g (other, human)
chain: B1 chain with A361G, I362S, P363L, Q365G, T366I, N367P
notes: mature

- SI (stoichiometry of inhibition) [1]: 3.6
- % Inhibition [2]: 100%
- % Inhibition [3]: 17%
- % Inhibition [4]: 0%
- % Inhibition (thrombin): 51%
- % Inhibition [5]: 100%
- % Inhibition [6]: 27%
B3: AATG1 (other, human)
chain: B1 chain with A361G, I362S, P363L, Q365S, T366I, N367P
notes: mature

- SI (stoichiometry of inhibition) [1]: 11.7
B4: AATF3 (other, human)
chain: B1 chain with I362P, P363D, Q365H, T366M, N367P
notes: mature

- SI (stoichiometry of inhibition) [1]: 10
B5: AATE5 (other, human)
chain: B1 chain with I362N, P363Q, Q365S, T366S, N367P
notes: mature

- SI (stoichiometry of inhibition) [1]: 9
- kon [7]: 42000 M⁻¹ s⁻¹
B6: AATC11g (other)
chain: MRGSHHHHHHGSDDPQGDAAQKTDTSHHDQDHPTFNKITPNLAEFAFSLYRQLAHQSNSTNIFFSPVSIATAFAMLSLGTKADTHDEILEGLNFNLTEIPEAQIHEGFQELLRTLNQPDSQLQLTTGNGLFLSEGLKLVDKFLEDVKKLYHSEAFTVNFGDTEEAKKQINDYVEKGTQGKIVDLVKELDRDTVFALVNYIFFKGKWERPFEVKDTEEEDFHVDQATTVKVPMMKRLGMFNIQHCKKLSSWVLLMKYLGNATAIFFLPDEGKLQHLENELTHDIITKFLENEDRRSASLHLPKLSITGTYDLKSVLGQLGITKVFSNGADLSGVTEEAPLKLSKAVHKAVLTIDEKGTEAAGAMFLEAIGRQTNPEVKFNKPFVFLMIEQNTKSPLFMGKVVNPTQK

- SI (stoichiometry of inhibition) [1]: 4.8
- kon [7]: 65000 M⁻¹ s⁻¹
- % Inhibition [2]: 100%
- % Inhibition [3]: 0%
- % Inhibition [4]: 0%
- % Inhibition (thrombin): 0%
- % Inhibition [5]: 0%
- % Inhibition [6]: 84%
B7: ACTC11 (other)
chain: MRGSHHHHHHSRHPNSPLDEENLTQENQDRGTHVDLGLASANVDFAFSLYKQLVLKAPDKNVIFSPLSISTALAFLSLGAHNTTLTEILKGLKFNLTETSEAEIHQSFQHLLRTLNQSSDELQLSMGNAMFVKEQLSLLDRFTEDAKRLYGSEAFATDFQDSAAAKKLINDYVKNGTRGKITDLIKDLDSQTMMVLVNYIFFKAKWEMPFDPQDTHQSRFYLSKKKWVMVPMMSLHHLTIPYFRDEELSCTVVELKYTGNASALFILPDQDKMEEVEAMLLPETLKRWRDSLEFREIGELYLPKFSISRDYNLNDILLQLGIEEAFTSKADLSGITGARNLAVSQVVHKAVLDVFEEGTEASAATAVKITLRQTNVETRTIVRFNRPFLMIIVPTDTQNIFFMSKVTNPKQA
notes: also called rACTC11

- % Inhibition (human kallikrein 2 (hK2)): 0%
- % Inhibition (human kallikrein 8 (hK8)): 0%
- % Inhibition (human kallikrein 6 (hK6)): 0%
- % Inhibition (human kallikrein 4 (hK4)): 0%
- % Inhibition (human kallikrein 5 (hK5)): 10%
B8: ACTG1g (other)
chain: B7 chain with I369G, T370S, Q373G, T374A, N375L

- % Inhibition (human kallikrein 2 (hK2)): 25%
- % Inhibition (human kallikrein 8 (hK8)): 0%
- % Inhibition (human kallikrein 6 (hK6)): 0%
- % Inhibition (human kallikrein 4 (hK4)): 45%
- % Inhibition (human kallikrein 5 (hK5)): 15%
B9: ACTF11 (other)
chain: B7 chain with I369Q, T370R, Q373D, T374A, N375L

- % Inhibition (human kallikrein 2 (hK2)): 0%
- % Inhibition (human kallikrein 8 (hK8)): 10%
- % Inhibition (human kallikrein 6 (hK6)): 0%
- % Inhibition (human kallikrein 4 (hK4)): 75%
- % Inhibition (human kallikrein 5 (hK5)): 10%
B10: ACTE5 (other)
chain: B7 chain with T370N, L371Q, Q373S, T374S, N375L

- SI (stoichiometry of inhibition) [1]: 2.8
- kon [7]: 74000 M⁻¹ s⁻¹
- % Inhibition [2]: 100%
- % Inhibition [3]: 0%
- % Inhibition [4]: 0%
- % Inhibition (thrombin): 0%
- % Inhibition [5]: 0%
- % Inhibition [6]: 83%
B11: ACTC11D (other)
chain: B7 chain with V376D
notes: also called rACTC11D

- SI (stoichiometry of inhibition) [1]: 11.7
- kon [7]: 22000 M⁻¹ s⁻¹
B12: ACTG1v (other)
chain: B7 chain with K368V, I369G, T370S, Q373S, T374A, N375L

- SI (stoichiometry of inhibition) [1]: 13.3
- kon [7]: 3200 M⁻¹ s⁻¹
- % Inhibition (human kallikrein 2 (hK2)): 15%
- % Inhibition (human kallikrein 8 (hK8)): 0%
- % Inhibition (human kallikrein 6 (hK6)): 20%
- % Inhibition (human kallikrein 4 (hK4)): 0%
- % Inhibition (human kallikrein 5 (hK5)): 50%
B13: ACTG1 (other)
chain: B7 chain with I369G, T370S, Q373S, T374A, N375L

- SI (stoichiometry of inhibition) [1]: 13.8
- kon [7]: 7600 M⁻¹ s⁻¹
- % Inhibition (human kallikrein 2 (hK2)): 25%
- % Inhibition (human kallikrein 8 (hK8)): 0%
- % Inhibition (human kallikrein 6 (hK6)): 0%
- % Inhibition (human kallikrein 4 (hK4)): 0%
- % Inhibition (human kallikrein 5 (hK5)): 5%
B14: ACTC11g (other)
chain: B7 chain with L371G
